Source: PMC6902028, “Elucidating the Immune Evasion Mechanisms of Borrelia mayonii, the Causative Agent of Lyme Disease” (Frontiers in Immunology, 2019)

Molecular target: T1, complement regulator factor H (FH) (human, UniProt P08603 19-1231)
T1 construct: source: bought: Complement Technology (purified); native, in non-immune human serum (NHS, NHS-EDTA)
Assay: ELISA; CspA of B. mayonii MN14-1420 (5 μg/ml) immobilised, increasing concentrations of FH; non-linear regression, one-site specific binding model
Conditions: both partners purified

T1 sequence (P08603 19-1231): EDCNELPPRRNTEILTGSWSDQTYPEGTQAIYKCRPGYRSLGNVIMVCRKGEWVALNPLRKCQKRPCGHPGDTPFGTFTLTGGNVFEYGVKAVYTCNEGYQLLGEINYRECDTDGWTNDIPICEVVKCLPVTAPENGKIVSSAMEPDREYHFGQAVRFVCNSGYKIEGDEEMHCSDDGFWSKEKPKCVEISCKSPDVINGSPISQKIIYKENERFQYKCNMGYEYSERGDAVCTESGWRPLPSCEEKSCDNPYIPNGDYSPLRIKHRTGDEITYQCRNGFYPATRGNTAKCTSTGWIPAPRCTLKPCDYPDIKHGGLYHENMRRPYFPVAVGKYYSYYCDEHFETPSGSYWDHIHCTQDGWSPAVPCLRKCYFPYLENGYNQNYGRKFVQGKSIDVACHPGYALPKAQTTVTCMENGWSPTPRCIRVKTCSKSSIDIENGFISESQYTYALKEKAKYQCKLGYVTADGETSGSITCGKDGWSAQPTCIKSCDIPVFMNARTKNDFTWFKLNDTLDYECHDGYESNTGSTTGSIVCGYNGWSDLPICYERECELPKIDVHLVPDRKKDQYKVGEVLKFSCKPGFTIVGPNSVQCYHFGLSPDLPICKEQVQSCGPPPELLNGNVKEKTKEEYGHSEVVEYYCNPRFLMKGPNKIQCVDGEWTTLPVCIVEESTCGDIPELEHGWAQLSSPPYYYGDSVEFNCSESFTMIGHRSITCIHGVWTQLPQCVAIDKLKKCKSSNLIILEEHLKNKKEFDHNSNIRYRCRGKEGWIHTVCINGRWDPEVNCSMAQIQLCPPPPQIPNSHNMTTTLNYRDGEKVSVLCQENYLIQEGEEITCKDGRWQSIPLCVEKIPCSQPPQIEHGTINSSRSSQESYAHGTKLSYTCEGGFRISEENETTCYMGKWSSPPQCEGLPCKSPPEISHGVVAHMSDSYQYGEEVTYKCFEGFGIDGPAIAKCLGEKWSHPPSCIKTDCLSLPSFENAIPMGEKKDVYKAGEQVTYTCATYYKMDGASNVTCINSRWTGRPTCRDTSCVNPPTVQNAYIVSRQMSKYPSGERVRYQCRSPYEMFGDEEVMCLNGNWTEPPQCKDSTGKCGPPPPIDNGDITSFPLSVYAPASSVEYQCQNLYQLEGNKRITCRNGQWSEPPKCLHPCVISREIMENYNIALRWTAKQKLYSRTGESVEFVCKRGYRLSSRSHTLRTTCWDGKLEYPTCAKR

B1: His6-tagged CspA of B. mayonii MN14-1420 (CspA-like protein Bmayo_04535) (natural protein)
chain: TANPIDPKANGNIKPKNNINTKKNTNLEKNTQNFENESENPRSYNQKLLEATIKELKVIGKNLEDQRKEENIQIAKIVDEKFDFLGTFKVGPYDIIEENQQMKMKRIIYSSLNYKKEKIETLKEILETLKNNPEHQYIAGRLANLSWSIQFKIDDNFETIQNGVDNLDQEKSESLLMRAKSNLQLKERFKKTLNETLEAYSQNAQNIKNDIGILAEHVNKYYKYSDSLKPIFY
notes: also called CspA orthologous protein of B. mayonii; CspA ortholog; not shown: His6, N-terminal, kept
  Kd: 5.6 ± 0.58 nM
